According to patent US20260035452A1 (THE UNIVERSITY OF BIRMINGHAM, priority 2022, published 2026):

Test system: Human dermal blood endothelial cells (HDBEC)
Experiment: HDBEC stimulation (flow cytometry, IL-6 Elisa)
Type: cell-based
Conditions: 100 ng/ml in combination with TNF-α (100 U/ml), 24 h
Method: FIG. 10: Human dermal blood endothelial cells (HDBEC) were treated with: IL-17 vehicle (Ctrl), IL-17 or FM-0410 (100 ng/ml), alone or in combination with TNF-α (100 U/ml) for 24 h. Cells were washed, gated in their totality and singlet before the identification of IL-17Rs (RA and RC) (A, B), ICAM (C) and VCAM (D) expression. Histogram values (expressed as MIF) indicate the total positive cells (A-D). In (E) are shown phase-contrast micrographs of confluent monolayers of untreated or treated (as reported before) HDBEC. Total adhesion (expressed as INT/mm^2, F) and % of transmigration (G) are calculated with Image Pro programme (DataCell, Finchampstead). Inflammatory supernatants from all experimental conditions were assayed by Elisa for IL-6 (H) expressed in pg/ml. Data were presented as means±S.D. of n=3 healthy donors. Statistical analysis was conducted by one-way ANOVA followed by Bonferroni's for multiple comparisons. ^#P≤0.05, ^##P≤0.01, ^###P≤0.001, ^####P≤0.0001 vs Ctrl group; *P≤0.05 vs TNF-α+IL-17 group; ^∘P≤0.05, ^∘∘∘P≤0.001, ^∘∘∘∘P≤0.0001 vs TNF-α group.
Human dermal blood endothelial cells (HDBEC): Primary human dermal blood endothelial cells (HDBECs) were purchased from PromoCell and cultured in the manufacturer's recommended endothelial cell growth medium MV (PromoCell, Heidelberg, Germany). HDBECs were seeded onto 12-well tissue culture plates after 4 passages at a seeding density yielding confluent monolayers. HDBEC monolayers were washed in endothelial cell growth medium MV warmed to 37° C. and stimulated with IL-17 or FM-0410 (100 ng/ml) alone or in a combination with TNF-α (100 U/ml) for 24 h at 37° C. Cells were stimulated for 24 h, before staining with IL-17Rs (RA or RC) or ICAM/VCAM adhesion receptors using a Flow cytometry assay. Supernatants were collected and measured to evaluate IL-6 or TNF-α levels.
Flow Cytometry: HDBEC, collected after 24 h of treatment, were washed with PBS without Ca^2+ and Mg^2+ containing 25 mM lactose for 20 min at room temperature with occasional mixing. […] Protein expression was analysed by flow cytometry on a Dako CyAn (Beckman Coulter, High Wycombe, U.K.), and data were analysed using MRFIow and FlowJo software operation. The unspecific binding of antibodies was quantified by using corresponding isotype controls.
Elisa assay: The levels of IL-6 at 24 h were measured using commercially available enzyme-linked immunosorbent assay kits (ELISA kit, R&D System, Milan, Italy) according to the manufacturer's instructions. […] The addition of 100 μl of the substrate and stop solution represented the last steps before the reading of absorbance (measured at 450 nm) on a microplate reader. Antigen levels in the samples were determined using a standard curve and expressed as pg/ml.

B1: IL-17: recombinant mouse IL-17 purchased from R&D System; full-length cytokine used as comparator and stimulus (protein, UniProt Q62386 26-158, looked up)
Interleukin-17A: AAIIPQSSACPNTEAKDFLQNVKVNLKVFNSLGAKVSSRRPSDYLNRSTSPWTLHRNEDPDRYPSVIWEAQCRHQRCVNAEGKLDHHMNSVLIQQEILVLKREPESCPFTFRVEKMLVGVGCTCVASIVRQAA
ICAM expression: upregulation
IL-17RA receptor expression: No effects
IL-17RC receptor expression: No effects
VCAM expression: upregulation
